Experimental data: patent publication US20250270304A1 (PHENOMIC AI, published 2025)
Changes are numbered by the printed parent chain.

T1: Activin B (Homo sapiens (Human), UniProt P09529 293-407)
T1 construct: also called Mature Activin B; mature Activin B
T1 sequence: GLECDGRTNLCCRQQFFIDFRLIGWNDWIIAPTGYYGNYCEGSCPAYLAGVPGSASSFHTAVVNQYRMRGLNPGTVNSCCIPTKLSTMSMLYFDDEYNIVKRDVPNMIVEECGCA

T2: Latent Activin A (human, UniProt P08476 21-426, limits assumed)
T2 construct: also called INHBA latent
T2 sequence: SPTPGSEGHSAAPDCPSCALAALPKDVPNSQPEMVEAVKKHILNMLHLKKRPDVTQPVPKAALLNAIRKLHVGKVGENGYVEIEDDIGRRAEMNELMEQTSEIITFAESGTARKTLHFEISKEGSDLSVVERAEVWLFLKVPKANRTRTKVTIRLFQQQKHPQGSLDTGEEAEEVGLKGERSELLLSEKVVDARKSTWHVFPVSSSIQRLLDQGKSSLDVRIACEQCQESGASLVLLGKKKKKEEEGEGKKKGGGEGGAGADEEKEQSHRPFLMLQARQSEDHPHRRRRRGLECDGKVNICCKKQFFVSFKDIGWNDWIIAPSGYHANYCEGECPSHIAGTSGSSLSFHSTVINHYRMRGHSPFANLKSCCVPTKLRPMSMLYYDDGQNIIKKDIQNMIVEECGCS

T3: Mature Activin A (human, UniProt P08476 311-426)
T3 construct: also called active Activin A; INHBA mature
T3 sequence: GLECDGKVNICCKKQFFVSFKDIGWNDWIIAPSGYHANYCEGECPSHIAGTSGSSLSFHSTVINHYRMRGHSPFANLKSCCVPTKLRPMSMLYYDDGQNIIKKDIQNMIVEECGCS

T4: Inhibin A (Homo sapiens (Human), UniProt P05111 233-366; P08476 311-426)
T4 sequence 1: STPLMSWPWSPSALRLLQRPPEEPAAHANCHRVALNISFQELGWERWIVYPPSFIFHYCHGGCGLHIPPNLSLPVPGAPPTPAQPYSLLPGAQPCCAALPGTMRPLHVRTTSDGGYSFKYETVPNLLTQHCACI
T4 sequence 2: T3 sequence

B1: AB448 (antibody, IgG1, V domains shown)
VH: QVQLQESGPGLVKPSQTLSLTCTVSGLSLSNAKMGVNWIRQPPGKGLEWIGYVSTTGTTDYNPSLKSRVTMSVDTSKNQFSLKVNSVTAADTAVYYCARAGYPDVWGKGTTVTVSS
VL: DIQMTQSPSSVSASVGDRVTITCRASQNIGAALAWYQQKPGKAPKLLIYGASTREYGVPSRFSGSGSGTDFTLTISSLQPEDFANYYCQQYTAYPLTFGGGTKVEIK
B2: AB428 (antibody, IgG1, V domains shown)
VH: EVQLVESGGGLVQPGGSLRLSCAASGFTSSNHWMSWVRQAPGKGLELVASIGPKGLGTYYPDSVKGRFTISRDNAKNSLYLQMNSLRAEDTAVYYCASIRDYGDKKGGSWFDPWGQGTLVTVSS
VL: DIVMTQSPLSLPVTPGEPASISCRSSQSLLHSSGYNFLHWYLQKPGQSPQLLIYMATNRASGVPDRFSGSGSGTDFTLKISRVEAEDVGVYYCVQDLHTLPQFGGGTKVEIK
B3: AB426 (antibody, IgG1, V domains shown)
VH: EVQLVESGGGLVQPGGSLRLSCAASGFTFSDHHMSWVRQAPGKGLELVASISPSGDFTYYPDSVKGRFTISRDNAKNSLYLQMNSLRAEDTAVYYCARDVSPVYYWGQGALVTVSS
VL: DIVMTQSPLSLPVTPGEPASISCRSSQSLLHWYLQKPGQSPQLLIYMGSQRAAGVPDRFSGSGSGTDFTLKISRVEAEDVGVYYCQSGVTFGGGTKVEIK
B4: AB345 (antibody, IgG1, V domains shown)
VH: EVQLVESGGGLVQPGGSLRLSCAASGFTSSGYWMSWFRQAPGKGLELVASIGTAGVTYYPDSVKGRFTISRDNAKNSLYLQMNSLRAEDTAVYYCARGPHGPQQRLRFDPWGQGTLVTVSS
VL: DIVMTQSPLSLPVTPGEPASISCRSSQSLLSSYGYHNLHWYLQKPGQSPQLLIYMGSIRAPGVPDRFSGSGSGTDFTLKISRVEAEDVGVYYCMQGTQAPRTFGGGTKVEIK
B5: AB431 (antibody, IgG1, V domains shown)
VH: EVQLVESGGGLVQPGGSLRLSCAASGFTSSNHWMSWVRQAPGKGLELVASIGPKGLGTYYPDSVKGRFTISRDNAKNSLYLQMNSLRAEDTAVYYCARDVRGWRALYYYYGMDVWGQGTTVTVSS
VL: DIVMTQSPLSLPVTPGEPASISCRSSQSLLHVTGYNYLHWYLQKPGQSPQLLIYGASSRAAGVPDRFSGSGSGTDFTLKISRVEAEDVGVYYCMQSTQWPHTFGGGTKVEIK
notes: also called mAb 431
B6: AB330 (antibody, IgG1, V domains shown)
VH: QVQLVQSGAEVKKPGASVKVSCKVSGYPSPATISWVRQAPGKGLEWMGWMNPKSGYTNYAQKFQGRVTMTEDTSTDTAYMELSSLKSEDTAVYYCATLHGSGLAFDIWGQGTMVTVSS
VL: DIQMTQSPSSVSASVGDRVTITCRASQDIKSDLAWYQQKPGKAPKLLIYRASARESGVPSRFSGSGSGTDFTLTISSLQPEDFANYYCQQYRSFPWSFGGGTKVEIK
notes: also called mAb 330
B7: AB344 (antibody, IgG1, V domains shown)
VH: EVQLVESGGGLVQPGGSLRLSCAASGYTFSNYGMSWVRQAPGKGLELVASISKSGSSIYYPDSVKGRFTISRDNAKNSLYLQMNSLRAEDTAVYYCARLPRLAWNYYYGMDVWGQGTTVTVSS
VL: DIVMTQSPLSLPVTPGEPASISCRSSRSLVHGSGDNYLHWYLQKPGQSPQLLIYMASNRAPGVPDRFSGSGSGTDFTLKISRVEAEDVGVYYCVQTLQTPSTFGGGTKVEIK
B8: AB341 (antibody, IgG1, V domains shown)
VH: B7 VH
VL: B2 VL with S33N, G34E, Y35K, F37Y, M55D, T57S, N58K, L100P, P101F, Q102T
B9: AB438 (antibody, IgG1, V domains shown)
VH: QVQLQESGPGLVKPSQTLSLTCTVSGVSLSNARLGVNWIRQPPGKGLEWIGYGSVTGSTDYNPSLKSRVTMSVDTSKNQFSLKVNSVTAADTAVYYCTTSYLVDTAMVTRWGQGTLVTVSS
VL: EIVMTQSPATLSLSPGERATLSCRASQSLGTNLAWYQQKPGQAPRLLIYGASSRPSGIPARFSGSGSGTDFTLTISSLEPEDFAVYYCQQYDTHPLSFGGGTKVEIK
B10: AB366 (antibody, IgG1, V domains shown)
VH: B1 VH with L27Y, S30T, N31D, K33R, M34I, V53I, S54N, T55P, T56S, T58R
VL: DIQMTQSPSSVSASVGDRVTITCRASQTISRSLAWYQQKPGKAPKLLIYDASSLAGGVPSRFSGSGSGTDFTLTISSLQPEDFANYYCQQYSSYPSLFGGGTKVEIK
B11: AB430 (antibody, IgG1, V domains shown)
VH: EVQLVESGGGLVQPGGSLRLSCAASGFTLSNYPMSWVRQAPGKGLELVASTTSGSSTIYYPDSVKGRFTISRDNAKNSLYLQMNSLRAEDTAVYYCARGPDYYAPLRSYMDVWGKGTTVTVSS
VL: DIVMTQSPLSLPVTPGEPASISCRSSQSLQQSEGRTYLHWYLQKPGQSPQLLIYDASKRASGVPDRFSGSGSGTDFTLKISRVEAEDVGVYYCMQVLRTPITFGGGTKVEIK
B12: AB439 (antibody, IgG1, V domains shown)
VH: EVQLVQSGAEVKKPGASVKVSCKASGYTYTGYRISWVRQAPGQGLEWMGWIDPKSGRTNYAQKLQGRGTMTTDPSTSTAYMELRSLRSDDTAVYYCAREVKQWLVPGRGVYWFDPWGQGTLVTVSS
VL: ESALTQPASVSGSPGQSITISCTGTNIGLRSVSWYQQHPGKAPKLMIYDTNIRSSGVSNRFSGSKSGNTASLTISGLQAEDEADYYCSSYTSSSTDVFGGGTKLTVL

Legend:
Experiment in all cases: ELISA, coated antigen, OD450
Activin B = target: T1, Activin B
Experimental: (§1) Antibodies were re-expressed in 40 mL cultures of Expi293 cells and purified using protein G magnetic sepharose beads (Cytiva, Marlborough, MA) to provide larger quantities for secondary screening. Secondary screening included dose responses in both functional assays described above (SMAD nuclear localization and fibroblast activations assays) as well as in binding assays to the same antigens listed in Table 3. Plates were coated with 25 μL of 3 μg/mL antigen in 384-well Maxisorp plates overnight at 4° C. with agitation. The next day, the samples in the plates were blocked with 70 μL blocking buffer (PBS+1% BSA+0.1% Tween-20) for 2 hours at room temperature. Plates were then washed three times with 100 μL of wash buffer (PBS+0.1% Tween-20). Primary antibodies in Expi293 expression medium were diluted 1:3 in blocking buffer, 25 μL added per well, and the plates were incubated for an hour at room temperature with agitation. Plates were then washed three times and 25 μL of secondary antibody (goat anti-Human IgG, HRP conjugated; Jackson Immunoresearch) diluted 1:5000 in blocking buffer was added for 30 minutes at room temperature. The wells in the plates were washed six times with wash buffer and TMB substrate was added followed by 1 M H3PO4.

Latent Activin A = target: T2, Latent Activin A
Experimental: as §1

Mature Activin A = target: T3, Mature Activin A
Experimental: as §1

Inhibin A = target: T4, Inhibin A
Experimental: as §1

Binder | fold-change of OD 450 over negative control (BSA) (Activin B) | fold-change of OD 450 over negative control (BSA) (Latent Activin A) | fold-change of OD 450 over negative control (BSA) (Mature Activin A) | fold-change of OD 450 over negative control (BSA) (Inhibin A)
B1 | 0.69 fold | 2.74 fold | 3.34 fold | 0.77 fold
B2 | 0.72 fold | 5.93 fold | 6.34 fold | 3.09 fold
B3 | 0.51 fold | 4.81 fold | 4.66 fold | 4.84 fold
B4 | 0.76 fold | 8.12 fold | 9.47 fold | 3.43 fold
B5 | 0.96 fold | 1 fold | 1.04 fold | 1.13 fold
B6 | 0.61 fold | 0.75 fold | – | 0.97 fold
B7 | 0.75 fold | 2.35 fold | 3.18 fold | 1.18 fold
B8 | 0.98 fold | 4.09 fold | 6.71 fold | 0.81 fold
B9 | 0.15 fold | 2.34 fold | 2.83 fold | 0.23 fold
B10 | 0.86 fold | 10.3 fold | 13.1 fold | 0.72 fold
B11 | 0.51 fold | 7.44 fold | 7.58 fold | 0.86 fold
B12 | – | 1.45 fold | 1.45 fold | –
